B1: Compound No. 38 (peptide)
peptide: {CH2CO}-[3Pal][NMeA]NPHL[Sar]WSW[NMeNle][NMeNle]RCG-NH2
modifications: thioether N-14
SMILES: CCCC[C@H]1C(=O)N(C)[C@@H](CCCC)C(=O)N[C@@H](CCCNC(=N)N)C(=O)N[C@H](C(=O)NCC(N)=O)CSCC(=O)N[C@@H](Cc2cccnc2)C(=O)N(C)[C@@H](C)C(=O)N[C@@H](CC(N)=O)C(=O)N2CCC[C@H]2C(=O)N[C@@H](Cc2c[nH]cn2)C(=O)N[C@@H](CC(C)C)C(=O)N(C)CC(=O)N[C@@H](Cc2c[nH]c3ccccc23)C(=O)N[C@@H](CO)C(=O)N[C@@H](Cc2c[nH]c3ccccc23)C(=O)N1C
B2: Compound No. 44 (peptide)
peptide: {CH2CO}-F[NMeA]N[Pip]HL[Sar]WSW[NMeNle][NMeNle]RCG-NH2
modifications: thioether N-14
SMILES: CCCC[C@H]1C(=O)N(C)[C@@H](CCCC)C(=O)N[C@@H](CCCNC(=N)N)C(=O)N[C@H](C(=O)NCC(N)=O)CSCC(=O)N[C@@H](Cc2ccccc2)C(=O)N(C)[C@@H](C)C(=O)N[C@@H](CC(N)=O)C(=O)N2CCCC[C@H]2C(=O)N[C@@H](Cc2c[nH]cn2)C(=O)N[C@@H](CC(C)C)C(=O)N(C)CC(=O)N[C@@H](Cc2c[nH]c3ccccc23)C(=O)N[C@@H](CO)C(=O)N[C@@H](Cc2c[nH]c3ccccc23)C(=O)N1C
B3: Compound No. 47 (peptide)
peptide: {CH2CO}-F[NMeA]N[Hyp]HL[Sar]WSW[NMeNle][NMeNle]RCG-NH2
modifications: thioether N-14
SMILES: CCCC[C@H]1C(=O)N(C)[C@@H](CCCC)C(=O)N[C@@H](CCCNC(=N)N)C(=O)N[C@H](C(=O)NCC(N)=O)CSCC(=O)N[C@@H](Cc2ccccc2)C(=O)N(C)[C@@H](C)C(=O)N[C@@H](CC(N)=O)C(=O)N2C[C@H](O)C[C@H]2C(=O)N[C@@H](Cc2c[nH]cn2)C(=O)N[C@@H](CC(C)C)C(=O)N(C)CC(=O)N[C@@H](Cc2c[nH]c3ccccc23)C(=O)N[C@@H](CO)C(=O)N[C@@H](Cc2c[nH]c3ccccc23)C(=O)N1C
B4: Compound No. 39 (peptide)
peptide: {CH2CO}-[4Pal][NMeA]NPHL[Sar]WSW[NMeNle][NMeNle]RCG-NH2
modifications: thioether N-14
SMILES: CCCC[C@H]1C(=O)N(C)[C@@H](CCCC)C(=O)N[C@@H](CCCNC(=N)N)C(=O)N[C@H](C(=O)NCC(N)=O)CSCC(=O)N[C@@H](Cc2ccncc2)C(=O)N(C)[C@@H](C)C(=O)N[C@@H](CC(N)=O)C(=O)N2CCC[C@H]2C(=O)N[C@@H](Cc2c[nH]cn2)C(=O)N[C@@H](CC(C)C)C(=O)N(C)CC(=O)N[C@@H](Cc2c[nH]c3ccccc23)C(=O)N[C@@H](CO)C(=O)N[C@@H](Cc2c[nH]c3ccccc23)C(=O)N1C
B5: Compound No. 45 (peptide)
peptide: {CH2CO}-F[NMeA]N[Oic]HL[Sar]WSW[NMeNle][NMeNle]RCG-NH2
modifications: thioether N-14
SMILES: CCCC[C@H]1C(=O)N(C)[C@@H](CCCC)C(=O)N[C@@H](CCCNC(=N)N)C(=O)N[C@H](C(=O)NCC(N)=O)CSCC(=O)N[C@@H](Cc2ccccc2)C(=O)N(C)[C@@H](C)C(=O)N[C@@H](CC(N)=O)C(=O)N2[C@@H](C[C@@H]3CCCC[C@@H]32)C(=O)N[C@@H](Cc2c[nH]cn2)C(=O)N[C@@H](CC(C)C)C(=O)N(C)CC(=O)N[C@@H](Cc2c[nH]c3ccccc23)C(=O)N[C@@H](CO)C(=O)N[C@@H](Cc2c[nH]c3ccccc23)C(=O)N1C
B6: Compound No. 8 (peptide)
peptide: {CH2CO}-F[NMeA]APHL[Sar]WSW[NMeNle][NMeNle]RCG-NH2
modifications: thioether N-14
SMILES: CCCC[C@H]1C(=O)N(C)[C@@H](CCCC)C(=O)N[C@@H](CCCNC(=N)N)C(=O)N[C@H](C(=O)NCC(N)=O)CSCC(=O)N[C@@H](Cc2ccccc2)C(=O)N(C)[C@@H](C)C(=O)N[C@@H](C)C(=O)N2CCC[C@H]2C(=O)N[C@@H](Cc2c[nH]cn2)C(=O)N[C@@H](CC(C)C)C(=O)N(C)CC(=O)N[C@@H](Cc2c[nH]c3ccccc23)C(=O)N[C@@H](CO)C(=O)N[C@@H](Cc2c[nH]c3ccccc23)C(=O)N1C
notes: macrocyclic peptide, Formula I series; also called Compound 8
B7: Compound No. 14 (peptide)
peptide: {CH2CO}-F[NMeA]NPHL[dNMeA]WSW[NMeNle][NMeNle]RCG-NH2
modifications: thioether N-14
SMILES: CCCC[C@H]1C(=O)N(C)[C@@H](CCCC)C(=O)N[C@@H](CCCNC(=N)N)C(=O)N[C@H](C(=O)NCC(N)=O)CSCC(=O)N[C@@H](Cc2ccccc2)C(=O)N(C)[C@@H](C)C(=O)N[C@@H](CC(N)=O)C(=O)N2CCC[C@H]2C(=O)N[C@@H](Cc2c[nH]cn2)C(=O)N[C@@H](CC(C)C)C(=O)N(C)[C@H](C)C(=O)N[C@@H](Cc2c[nH]c3ccccc23)C(=O)N[C@@H](CO)C(=O)N[C@@H](Cc2c[nH]c3ccccc23)C(=O)N1C
notes: macrocyclic peptide, Formula I series; also called Compound 14
B8: Compound No. 10 (peptide)
peptide: {CH2CO}-F[NMeA]NPAL[Sar]WSW[NMeNle][NMeNle]RCG-NH2
modifications: thioether N-14
SMILES: CCCC[C@H]1C(=O)N(C)[C@@H](CCCC)C(=O)N[C@@H](CCCNC(=N)N)C(=O)N[C@H](C(=O)NCC(N)=O)CSCC(=O)N[C@@H](Cc2ccccc2)C(=O)N(C)[C@@H](C)C(=O)N[C@@H](CC(N)=O)C(=O)N2CCC[C@H]2C(=O)N[C@@H](C)C(=O)N[C@@H](CC(C)C)C(=O)N(C)CC(=O)N[C@@H](Cc2c[nH]c3ccccc23)C(=O)N[C@@H](CO)C(=O)N[C@@H](Cc2c[nH]c3ccccc23)C(=O)N1C
notes: macrocyclic peptide, Formula I series; also called Compound 10
B9: Compound No. 13 (peptide)
peptide: {CH2CO}-F[NMeA]NPHL[NMeA]WSW[NMeNle][NMeNle]RCG-NH2
modifications: thioether N-14
SMILES: CCCC[C@H]1C(=O)N(C)[C@@H](CCCC)C(=O)N[C@@H](CCCNC(=N)N)C(=O)N[C@H](C(=O)NCC(N)=O)CSCC(=O)N[C@@H](Cc2ccccc2)C(=O)N(C)[C@@H](C)C(=O)N[C@@H](CC(N)=O)C(=O)N2CCC[C@H]2C(=O)N[C@@H](Cc2c[nH]cn2)C(=O)N[C@@H](CC(C)C)C(=O)N(C)[C@@H](C)C(=O)N[C@@H](Cc2c[nH]c3ccccc23)C(=O)N[C@@H](CO)C(=O)N[C@@H](Cc2c[nH]c3ccccc23)C(=O)N1C
notes: macrocyclic peptide, Formula I series; also called Compound 13

Positions of bridges follow the written chain, without caps; N, C: chain ends. Non-standard residues stand in square brackets, D forms with d. Oic = O=C(O)[C@@H]1C[C@@H]2CCCC[C@@H]2N1; Hyp = O=C(O)[C@@H]1C[C@@H](O)CN1; 3Pal = N[C@@H](Cc1cccnc1)C(=O)O; 4Pal = N[C@@H](Cc1ccncc1)C(=O)O; NMeNle = CCCC[C@H](NC)C(=O)O; Pro(4-NH2) = 4-aminoproline; Pro(4-Ph) = 4-phenylproline; Pip = O=C(O)[C@@H]1CCCCN1; NMeA = CN[C@@H](C)C(=O)O; dNMeA = CN[C@H](C)C(=O)O; Sar = CNCC(=O)O

For orientation: IC50 means the point on the concentration scale where inhibition reaches its midpoint. A higher IC50 goes with weaker potency.

T2 sequence (Q9NZQ7 19-239 limits assumed): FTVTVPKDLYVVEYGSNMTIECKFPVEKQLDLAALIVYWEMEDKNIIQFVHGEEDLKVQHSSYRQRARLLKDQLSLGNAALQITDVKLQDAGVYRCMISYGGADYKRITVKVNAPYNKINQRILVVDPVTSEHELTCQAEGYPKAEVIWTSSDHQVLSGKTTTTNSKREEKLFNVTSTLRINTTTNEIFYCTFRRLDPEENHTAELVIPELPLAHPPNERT

One assay deals with T1, hPDL1(19-239)-TVMV-His (human, UniProt Q9NZQ7 19-239).
T1 construct: The text says amino acids 18-239, the construct name says 19-239; Expressed in HEK293T cells; Used at 10 nM final in the HTRF assay; also called PD-L1-His; PD-L1-TVMV-His
T1 sequence (Q9NZQ7 other isoform, or with tags, fused parts or gaps limits assumed): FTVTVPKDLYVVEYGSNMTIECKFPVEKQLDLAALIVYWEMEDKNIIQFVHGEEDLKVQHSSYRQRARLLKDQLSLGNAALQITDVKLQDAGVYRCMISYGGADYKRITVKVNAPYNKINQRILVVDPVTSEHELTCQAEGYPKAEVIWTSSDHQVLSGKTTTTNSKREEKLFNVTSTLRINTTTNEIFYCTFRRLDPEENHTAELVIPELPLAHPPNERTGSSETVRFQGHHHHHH
The assay is described as follows: HTRF competition, PD-1-Ig binding to PD-L1-His. On the procedure: All binding studies were performed in an HTRF assay buffer consisting of dPBS supplemented with 0.1% (w/v) bovine serum albumin and 0.05% (v/v) Tween-20. […] PD-L1 fusion proteins from either human, cynomologous macaques, or mouse were used. HTRF detection was achieved using europium crypate-labeled anti-Ig monoclonal antibody (1 nM final) and allophycocyanin (APC) labeled anti-His monoclonal antibody (20 nM final). Antibodies were diluted in HTRF detection buffer and 5 μl was dispensed on top of binding reaction. The reaction was allowed to equilibrate for 30 minutes and signal (665 nm/620 nm ratio) was obtained using an EnVision fluorometer. […]
HTRF Experiments were performed essentially as outlined supra. Variant macrocyclic peptides were created as outlined herein.
Background: TR-FRET usually uses a lanthanide donor and a delayed reading to cut background.
As to B1, the IC50 is 46 nM.

Take B2: the half-maximal inhibitory concentration (IC50) turned out to be 34 nM. Molecule {CH2CO}-F[NMeA]N[Pro(4-Ph)]HL[Sar]WSW[NMeNle][NMeNle]RCG-NH2 (thioether N-14) [Compound No. 46] came in with an IC50 of 873 nM. The same measure, in the same setting: then B3, with 27 nM; and B4, with 33 nM. Still for that read-out and setting: next, {CH2CO}-F[NMeA]N[Pro(4-NH2)]HL[Sar]WSW[NMeNle][NMeNle]RCG-NH2 (thioether N-14) [Compound No. 48]: 40 nM; B5: 105 nM.

The next assay concerns the target T2, human PD-L1 (human, UniProt Q9NZQ7 19-239, limits assumed).
T2 construct: also called Hu PD-L1; hPD-L1
The assay is described as follows: cell binding assay, inhibition of Hu PD-L1/PD-1 binding.
The molecule B6 showed an IC50 of 223 nM. Still for that read-out and setting: then B7, with 242 nM; and B8, with 82 nM. Molecule B9 gave an IC50 of 35 nM.
